Data taken from patent US20240317847A1 (Bayer, published 2024).
Read-outs that look alike come from different tables or passages of the source.

Tests used:
[1] = biological target: T1, human IL2Ra (human, UniProt P01589 22-240, limits assumed); experiment: ELISA on coated IL2Ra, signal ratio to isotype control TPP-10159 at 3.3E-7 M antibody
T1 construct: coated on the ELISA plate; also called IL-2 receptor alpha
T1 sequence (looked up): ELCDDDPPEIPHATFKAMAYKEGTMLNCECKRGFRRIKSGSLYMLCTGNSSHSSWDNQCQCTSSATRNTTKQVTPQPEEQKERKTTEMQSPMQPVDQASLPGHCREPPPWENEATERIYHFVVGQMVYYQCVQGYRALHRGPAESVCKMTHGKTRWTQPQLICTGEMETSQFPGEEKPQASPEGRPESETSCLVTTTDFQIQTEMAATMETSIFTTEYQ
Description: IL2RA (Peprotech, Germany, #200-02RC) was coated at 1 or 0 μg/ml (buffer only control) in 30 μl coating buffer (Candor, #113500) per well on a 384 well microtiter plate (Maxisorb, Nunc, #460518) over night at 4-8° C. After two washes with 50 μl/well washing buffer (PBS+0.05% Tween, pH 7.4), the plates were incubated for two hours at room temperature with 50 μl/well SmartBlock (Candor, #113500). After blocking, the plates were washed three times with washing buffer. Then, a dilution series of the respective antibody (1E-7 [M] down to 2E-13 [M]) in PBS+0.05% Tween, 10% SmartBlock were added in 30 μl to the microtiter plate and incubated for 90 min at room temperature. After three additional washes, 30 μl anti mouse IgG HRP-conjugated antibody (Biotechne, HAF007), diluted 1:1000 in PBS+0.05% Tween (pH 7.4), were added per well and incubated for one hour. After three additional washes, a mixture of Amplex red (Invitrogen, #12222, 10 mM stock solution in DMSO) 1:1000 diluted in PBS and H2O2 (30%, Merck, #107209)) diluted 1:10000 in PBS were added as substrate with 30 μl per well and incubated for 20 min in the dark. Relative fluorescence was measured with a microtiter plate reader at 535/590 nm.
IgG converted antibodies TPP-were tested for binding to IL2Ra as described in Example 20. The ratios of the signals obtained at an antibody concentration of 3.3E-7 [M] for IgG converted antibody versus the isotype control TPP-10159 were calculated and are shown in Table E22.

[2] = biological target: T2, human IL-11 (human, UniProt P20809 22-199); experiment: cell-based or functional assay
T2 sequence: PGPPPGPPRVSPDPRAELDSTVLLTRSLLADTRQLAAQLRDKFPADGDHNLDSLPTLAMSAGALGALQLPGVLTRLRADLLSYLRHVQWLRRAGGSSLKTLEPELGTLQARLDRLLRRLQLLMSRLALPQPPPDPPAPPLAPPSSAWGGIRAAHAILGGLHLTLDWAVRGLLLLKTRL

[3] = biological target: T3, rat IL-11 (rat, UniProt Q99MF5 22-199); experiment: cell-based or functional assay
T3 sequence: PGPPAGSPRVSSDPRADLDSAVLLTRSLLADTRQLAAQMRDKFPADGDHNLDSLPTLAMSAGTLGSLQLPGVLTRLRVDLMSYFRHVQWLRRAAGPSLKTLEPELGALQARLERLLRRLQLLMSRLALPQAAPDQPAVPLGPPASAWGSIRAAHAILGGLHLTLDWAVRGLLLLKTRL

[4] = biological target: T4, cynomolgus IL-11 (cynomolgus, UniProt P20808 22-199); experiment: cell-based or functional assay
T4 sequence: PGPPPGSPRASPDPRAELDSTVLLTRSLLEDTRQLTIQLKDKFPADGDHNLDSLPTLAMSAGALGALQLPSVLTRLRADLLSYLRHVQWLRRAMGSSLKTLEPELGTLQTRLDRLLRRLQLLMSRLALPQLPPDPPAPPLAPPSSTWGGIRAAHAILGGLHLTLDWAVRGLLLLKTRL

[5] = biological target: T5, murine IL-11 (mouse, UniProt P47873 22-199); experiment: cell-based or functional assay
T5 sequence: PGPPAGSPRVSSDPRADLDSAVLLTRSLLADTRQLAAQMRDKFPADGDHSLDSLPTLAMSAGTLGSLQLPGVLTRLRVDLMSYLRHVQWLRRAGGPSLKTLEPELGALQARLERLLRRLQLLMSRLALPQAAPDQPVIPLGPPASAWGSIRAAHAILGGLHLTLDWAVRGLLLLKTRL

[6] = biological target: T5, murine IL-11; experiment: Tri-complex ELISA, mIL-11 + mIL-11Ra-Fc + mgp130-Fc, inhibition of complex formation
[7] = biological target: T2, human IL-11; experiment: Tri-complex ELISA, hIL-11 + mIL-11Ra-Fc + hgp130-Fc, inhibition of complex formation
[8] = biological target: T2, human IL-11; experiment: cell-based or functional assay; remark: listed apart in the source
[9] = biological target: T5, murine IL-11; experiment: cell-based or functional assay; remark: listed apart in the source

B1: TPP-23580 (antibody, mouse IgG1, kappa)
heavy: EVQLVQSGAEVKKPGASVKISCKASGYTFTDYNMDWVKQAPGQRLEWIGDINPHNGGPIYNQKFTGRATLTVDKSASTAYMELSSLRSEDTAVYYCARGELGHWYFDVWGQGTTVTVSSAKTTPPSVYPLAPGSAAQTNSMVTLGCLVKGYFPEPVTVTWNSGSLSSGVHTFPAVLQSDLYTLSSSVTVPSSTWPSETVTCNVAHPASSTKVDKKIVPRDCGCKPCICTVPEVSSVFIFPPKPKDVLTITLTPKVTCVVVDISKDDPEVQFSWFVDDVEVHTAQTQPREEQFNSTFRSVSELPIMHQDWLNGKEFKCRVNSAAFPAPIEKTISKTKGRPKAPQVYTIPPPKEQMAKDKVSLTCMITDFFPEDITVEWQWNGQPAENYKNTQPIMDTDGSYFVYSKLNVQKSNWEAGNTFTCSVLHEGLHNHHTEKSLSHSPGK
light: DIVLTQSPASLALSPGERATLSCRASKSVSTSGYSYIHWYQQKPGQPPRLLIYLASNLDSGVPARFSGSGSGTDFTLNIHPLEEEDFATYYCQHSRDLPPTFGQGTKLEIKRADAAPTVSIFPPSSEQLTSGGASVVCFLNNFYPKDINVKWKIDGSERQNGVLNSWTDQDSKDSTYSMSSTLTLTKDEYERHNSYTCEATHKTSTSPIVKSFNRNEC
notes: also called BSN 3C6 2.2-2.1-mIgG1Kappa; BSN 3C6 (WO2019238882)
Antibody/Isotype Control Ratio of IL-2Ra Binding Signals [1]: 2.2 ratio
Efficacy (%), Stat3 reporter gene assay [2]: 64%
Efficacy (%), Stat3 reporter gene assay [3]: 62.2%
IC50, Stat3 reporter gene assay [3]: 14 nM
Efficacy (%), Stat3 reporter gene assay [4]: 21.9%
Efficacy (%), Stat3 reporter gene assay [5]: 88.9%
IC50, Stat3 reporter gene assay [5]: 7.9 nM
Efficacy (%) [6]: 45.8%
IC50 [6]: 31 nM
Efficacy (%) [7]: 45.8%
IC50 [7]: 3.4 nM
Efficacy (%), Stat3 reporter gene assay [8]: 68.6%
IC50, Stat3 reporter gene assay [8]: 8.7 nM
Efficacy (%), Stat3 reporter gene assay [9]: 46.7%
IC50, Stat3 reporter gene assay [9]: 28 nM
